Source: publication PMC314469, “Protein Interaction Networks by Proteome Peptide Scanning” (PLoS Biology, 2004)

T1: amphyphisin SH3 (AMPH_HUMAN), P49418
T1 chain: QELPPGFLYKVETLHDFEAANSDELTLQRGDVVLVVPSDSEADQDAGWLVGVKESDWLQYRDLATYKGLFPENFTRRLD


How the values were obtained:
[1] = molecular target: T1, amphyphisin SH3 (AMPH_HUMAN), P49418; assay: SPOT array
[2] = molecular target: endophilin SH3 (SH3G2_HUMAN), Q99962; assay: SPOT array

Row | Binder | normalised SPOT signal, Boehringer light units (BLU); mean over the file's lines of this peptide [1] | normalised SPOT signal, Boehringer light units (BLU); mean over the file's lines of this peptide [2]
1 | SIHPPGRPPAVRGP [P50570 773-787] | 340 | 2730
2 | SALSLRRPHSGWSA [O75097 1019-1032] | 27.1 | 47.4
3 | SGGRPLRPPHPVAK [O76081 141-155] | 718 | 6230
4 | SGVLLVRPSRLSSS [P11362 439-452] | 7990 | 210
5 | SKASLSRPGRRPLG [Q9C0H4 580-593] | 226 | 53.5
6 | SIVEFFRPPKEVHL [Q96RL7 600-613] | 164 | 98.5
7 | SGLAPKRPGPAGEL [Q16849 127-140] | 22.9 | 11.3
8 | SISFPTRPPLQAQI [Q8TDT3 61-75] | 61.2 | 162
9 | SINLLSRPERGWEG [Q14801 17-30] | 0 | 97.2
10 | SGKGLRRPHSTVEE [Q9P2L5 16-29] | 44.8 | 17.2
11 | SAGPPSRPQRPFSA [O43257 105-118] | 4230 | 2420
12 | SGTPIRRPMGQMKP [P16930 169-182] | 3.3 | 148
13 | SGGRPIKPPKKDLE [Q15059 280-294] | 48.5 | 66
14 | SGSKLKRPTPTFHS [Q9UPN3 5307-5320] | 41.6 | 40.3
15 | SGMAFPRPKRPAPA [Q9BQ84 245-258] | 1310 | 629
16 | SGGRLRRPVNVPLD [Q09470 98-111] | 33.6 | 44

Row | Binder | normalised SPOT signal, Boehringer light units (BLU); mean over the file's lines of this peptide [1] | normalised SPOT signal, Boehringer light units (BLU); mean over the file's lines of this peptide [2]
17 | SGLRLRRPRVSSTE [Q9H3P9 250-263] | 67.4 | 44.7
18 | SGSRPRKPPPRKHT [Q9P189 81-95] | 3680 | 3720
19 | SITQLRRPSQLLYP [Q96AN7 126-139] | 9.2 | 36.3
20 | SHHPPDRPPDPFST [Q8TA97 483-497] | 30.4 | 1390
21 | SGNSLKRPDTTESL [Q96SU4 326-339] | 24.4 | 18.9
22 | SGGRLRRPVNVSLD [P22460 181-194] | 56.9 | 54.6
23 | SGGRLRRPAHVPLD [Q9BYS4 74-87] | 20.8 | 24.7
24 | AAVAPSRPGREPQA [Q9ULI4 780-793] | 2520 | 418
25 | SGTALLRPLRPKPP [Q92766 106-119] | 147 | 153
26 | SHGSPRRPGPEPGA [O95180 532-545] | 44.7 | 31
27 | SGPGPARPARARPR [P53539 130-143] | 14900 | 17200
28 | SIWDPRRPLNTTEG [P09848 409-422] | 10.9 | 41.8
29 | SGGRLKRPVNVPFD [P22459 237-250] | 11.4 | 37.8
30 | SKTPPQRPPPQGSL [Q92777 445-459] | 193 | 2380
31 | SGPDLRRPPTPAPW [Q96IB8 451-464] | 39.4 | 39.1
